Assay results as given in patent publication US20180155451A1 (published 2018).

T1: FcγRIIb extracellular domain with C-terminal His tag (human, UniProt P31994 43-217)
T1 construct: extracellular domain; also called 2b; FcgRIIb; not shown: His tag at the C terminus
T1 sequence (looked up): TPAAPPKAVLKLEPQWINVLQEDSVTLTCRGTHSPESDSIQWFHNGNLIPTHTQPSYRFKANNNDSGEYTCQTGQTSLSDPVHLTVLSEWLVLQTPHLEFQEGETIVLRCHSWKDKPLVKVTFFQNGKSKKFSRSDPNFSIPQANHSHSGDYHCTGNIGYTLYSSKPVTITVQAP


What was measured:
[1] = biological target: T1, FcγRIIb extracellular domain with …; test: SPR (Biacore), relative binding, GpH7-A5/GpH7-B3/GpL16-k0 = 100
Procedure: (§1) Analysis of interaction between objective antibody and the FcγR was carried out using Biacore T100 (GE Healthcare). HBS-EP+ (GE Healthcare) was used as the running buffer, and the measurement temperature was set to 25° C. Chips produced by immobilizing the antigen peptide by the amine coupling method to a Series S Sencor Chip CM5 (GE Healthcare), or alternatively, chips produced by allowing preliminarily biotinylated antigen peptides to interact with and immobilize onto a Series S Sensor Chip SA (certified) (GE Healthcare) were used. Antibodies of interest were captured onto an antigen peptide-immobilized chip, and allowed to interact to each FcγR diluted with running buffer. To regenerate and repeatedly use the chip, the antibodies captured on the chip were washed off by reacting 10 mM glycine-HCl, pH 1.5.
(§2) The FcγR-binding activity of each antibody was assessed primarily using as an indicator the FcγR-binding activity and dissociation constant for FcγR.

[2] = biological target: T2, FcγRIIIa extracellular domain with C-terminal His tag (human, UniProt P08637 17-208); test: as above
T2 construct: extracellular domain; also called 3a; FcgRIIIa; not shown: His tag at the C terminus
T2 sequence (P08637 17-208): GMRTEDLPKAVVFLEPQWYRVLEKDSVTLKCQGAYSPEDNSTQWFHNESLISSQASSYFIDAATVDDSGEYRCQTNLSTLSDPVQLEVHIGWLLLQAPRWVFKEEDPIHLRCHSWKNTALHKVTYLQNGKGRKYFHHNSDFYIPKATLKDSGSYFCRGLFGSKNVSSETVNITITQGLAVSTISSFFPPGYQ
Procedure: as §1, §2

Row | Binder | He/Con_2b [1] | He/Con_3a [2]
1 | GpH7-A5/GpH7-B3 variant D265_18N/GpL16-k0 (antibody, human IgG1, kappa, He Ab: mutation in the GpH7-B3 H chain only; also called He Ab) heavy 1: not shown heavy 2: not shown light: DIVMTQSPLSLPVTPGEPASISCQASESLVHSNRNTYLHWYLQKPGQSPQLLIYKVSNRFSGVPDRFSGSGSGTDFTLKISRVEAEDVGVYYCSQNTHVPPTFGQGTKVEIERTVAAPSVFIFPPSDEQLKSGTASVVCLLNNFYPREAKVQWKVDNALQSGNSQESVTEQDSKDSTYSLSSTLTLSKADYEKHKVYACEVTHQGLSSPVTKSFNRGEC | 6.1 % of control | 4.6 % of control
2 | GpH7-A5/GpH7-B3 variant L328_13S/GpL16-k0 (antibody, human IgG1, kappa, He Ab: mutation in the GpH7-B3 H chain only; also called He Ab) heavy 1: not shown heavy 2: not shown light: DIVMTQSPLSLPVTPGEPASISCQASESLVHSNRNTYLHWYLQKPGQSPQLLIYKVSNRFSGVPDRFSGSGSGTDFTLKISRVEAEDVGVYYCSQNTHVPPTFGQGTKVEIERTVAAPSVFIFPPSDEQLKSGTASVVCLLNNFYPREAKVQWKVDNALQSGNSQESVTEQDSKDSTYSLSSTLTLSKADYEKHKVYACEVTHQGLSSPVTKSFNRGEC | 149 % of control | 71.7 % of control
3 | GpH7-A5/GpH7-B3 variant L328_06M/GpL16-k0 (antibody, human IgG1, kappa, He Ab: mutation in the GpH7-B3 H chain only; also called He Ab) heavy 1: not shown heavy 2: not shown light: DIVMTQSPLSLPVTPGEPASISCQASESLVHSNRNTYLHWYLQKPGQSPQLLIYKVSNRFSGVPDRFSGSGSGTDFTLKISRVEAEDVGVYYCSQNTHVPPTFGQGTKVEIERTVAAPSVFIFPPSDEQLKSGTASVVCLLNNFYPREAKVQWKVDNALQSGNSQESVTEQDSKDSTYSLSSTLTLSKADYEKHKVYACEVTHQGLSSPVTKSFNRGEC | 142 % of control | 78.6 % of control
4 | GpH7-A5/GpH7-B3 variant L328_03V/GpL16-k0 (antibody, human IgG1, kappa, He Ab: mutation in the GpH7-B3 H chain only; also called He Ab) heavy 1: not shown heavy 2: not shown light: DIVMTQSPLSLPVTPGEPASISCQASESLVHSNRNTYLHWYLQKPGQSPQLLIYKVSNRFSGVPDRFSGSGSGTDFTLKISRVEAEDVGVYYCSQNTHVPPTFGQGTKVEIERTVAAPSVFIFPPSDEQLKSGTASVVCLLNNFYPREAKVQWKVDNALQSGNSQESVTEQDSKDSTYSLSSTLTLSKADYEKHKVYACEVTHQGLSSPVTKSFNRGEC | 126 % of control | 78.7 % of control
5 | GpH7-A5/GpH7-B3 variant K334_12R/GpL16-k0 (antibody, human IgG1, kappa, He Ab: mutation in the GpH7-B3 H chain only; also called He Ab) heavy 1: not shown heavy 2: not shown light: DIVMTQSPLSLPVTPGEPASISCQASESLVHSNRNTYLHWYLQKPGQSPQLLIYKVSNRFSGVPDRFSGSGSGTDFTLKISRVEAEDVGVYYCSQNTHVPPTFGQGTKVEIERTVAAPSVFIFPPSDEQLKSGTASVVCLLNNFYPREAKVQWKVDNALQSGNSQESVTEQDSKDSTYSLSSTLTLSKADYEKHKVYACEVTHQGLSSPVTKSFNRGEC | 111 % of control | 90.8 % of control
6 | GpH7-A5/GpH7-B3 variant L328_10E/GpL16-k0 (antibody, human IgG1, kappa, He Ab: mutation in the GpH7-B3 H chain only; also called He Ab) heavy 1: not shown heavy 2: not shown light: DIVMTQSPLSLPVTPGEPASISCQASESLVHSNRNTYLHWYLQKPGQSPQLLIYKVSNRFSGVPDRFSGSGSGTDFTLKISRVEAEDVGVYYCSQNTHVPPTFGQGTKVEIERTVAAPSVFIFPPSDEQLKSGTASVVCLLNNFYPREAKVQWKVDNALQSGNSQESVTEQDSKDSTYSLSSTLTLSKADYEKHKVYACEVTHQGLSSPVTKSFNRGEC | 172 % of control | 53.4 % of control
7 | GpH7-A5/GpH7-B3 variant D265_16H/GpL16-k0 (antibody, human IgG1, kappa, He Ab: mutation in the GpH7-B3 H chain only; also called He Ab) heavy 1: not shown heavy 2: not shown light: DIVMTQSPLSLPVTPGEPASISCQASESLVHSNRNTYLHWYLQKPGQSPQLLIYKVSNRFSGVPDRFSGSGSGTDFTLKISRVEAEDVGVYYCSQNTHVPPTFGQGTKVEIERTVAAPSVFIFPPSDEQLKSGTASVVCLLNNFYPREAKVQWKVDNALQSGNSQESVTEQDSKDSTYSLSSTLTLSKADYEKHKVYACEVTHQGLSSPVTKSFNRGEC | 38.3 % of control | 13.6 % of control
8 | GpH7-A5/GpH7-B3 variant L328_15Y/GpL16-k0 (antibody, human IgG1, kappa, He Ab: mutation in the GpH7-B3 H chain only; also called He Ab) heavy 1: not shown heavy 2: not shown light: DIVMTQSPLSLPVTPGEPASISCQASESLVHSNRNTYLHWYLQKPGQSPQLLIYKVSNRFSGVPDRFSGSGSGTDFTLKISRVEAEDVGVYYCSQNTHVPPTFGQGTKVEIERTVAAPSVFIFPPSDEQLKSGTASVVCLLNNFYPREAKVQWKVDNALQSGNSQESVTEQDSKDSTYSLSSTLTLSKADYEKHKVYACEVTHQGLSSPVTKSFNRGEC | 193 % of control | 68.3 % of control
9 | GpH7-A5/GpH7-B3 variant D265_14T/GpL16-k0 (antibody, human IgG1, kappa, He Ab: mutation in the GpH7-B3 H chain only; also called He Ab) heavy 1: not shown heavy 2: not shown light: DIVMTQSPLSLPVTPGEPASISCQASESLVHSNRNTYLHWYLQKPGQSPQLLIYKVSNRFSGVPDRFSGSGSGTDFTLKISRVEAEDVGVYYCSQNTHVPPTFGQGTKVEIERTVAAPSVFIFPPSDEQLKSGTASVVCLLNNFYPREAKVQWKVDNALQSGNSQESVTEQDSKDSTYSLSSTLTLSKADYEKHKVYACEVTHQGLSSPVTKSFNRGEC | 16 % of control | 4.3 % of control
10 | GpH7-A5/GpH7-B3 variant L328_19Q/GpL16-k0 (antibody, human IgG1, kappa, He Ab: mutation in the GpH7-B3 H chain only; also called He Ab) heavy 1: not shown heavy 2: not shown light: DIVMTQSPLSLPVTPGEPASISCQASESLVHSNRNTYLHWYLQKPGQSPQLLIYKVSNRFSGVPDRFSGSGSGTDFTLKISRVEAEDVGVYYCSQNTHVPPTFGQGTKVEIERTVAAPSVFIFPPSDEQLKSGTASVVCLLNNFYPREAKVQWKVDNALQSGNSQESVTEQDSKDSTYSLSSTLTLSKADYEKHKVYACEVTHQGLSSPVTKSFNRGEC | 105 % of control | 81.1 % of control
